In publication PMC8281026, “Peptide Based Inhibitors of Protein Binding to the Mitogen-Activated Protein Kinase Docking Groove” (Frontiers in Molecular Biosciences, 2021):

Molecular target: ERK2, P28482
Test: fluorescence polarisation; competitive: complex of the MAPK with 50 nM Cf-RHDF at 60-80% complex formation titrated with increasing unlabeled peptide; 20 mM Tris pH 8.0, 100 mM NaCl, 0.05% Brij35, 2 mM TCEP; 384-well black plates; triplicates; constants are called Kd in Table 1 and Ki in the …

ERK2, P28482, sequence (P28482 whole entry): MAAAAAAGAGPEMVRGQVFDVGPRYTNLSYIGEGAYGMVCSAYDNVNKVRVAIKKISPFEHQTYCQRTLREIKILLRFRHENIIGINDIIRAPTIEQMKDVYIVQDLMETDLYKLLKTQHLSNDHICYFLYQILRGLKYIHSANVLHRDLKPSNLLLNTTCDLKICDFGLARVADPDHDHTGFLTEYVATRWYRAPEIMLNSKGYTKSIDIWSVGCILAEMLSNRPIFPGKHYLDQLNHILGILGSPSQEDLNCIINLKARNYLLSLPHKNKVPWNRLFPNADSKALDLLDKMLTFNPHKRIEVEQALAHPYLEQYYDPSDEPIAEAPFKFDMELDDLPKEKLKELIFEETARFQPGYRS

- Kd: 0.6 µM
B1: octaarginine conjugate of the native RHDF1 sequence (peptide 2) (peptide)
chain 1: SLQRKKPPWLKLDIPSC
chain 2: RRRRRRRR
modifications: not checked
